Test results from patent publication US20240076396A1.

Columns and labels:
[1] = target: cynomolgus monkey GITR expressed on the cell surface (Macaca fascicularis (cynomolgus monkey)); assay: flow cytometry, AF647 antibody at 200 nM; cynomolgus primary CD4+ CD69+ T-cells, donor 58945
[2] = target: human GITR expressed on the cell surface (human) (UniProt Q9Y5U5); assay: flow cytometry, AF647 antibody at 200 nM; human primary CD8+ CD25+ T-cells, donor 2700*
[3] = target: cynomolgus monkey GITR expressed on the cell surface (Macaca fascicularis (cynomolgus monkey)); assay: flow cytometry, AF647 antibody at 200 nM; cynomolgus primary CD4+ CD69+ T-cells, donor 58948
[4] = target: human GITR expressed on the cell surface (human) (UniProt Q9Y5U5); assay: flow cytometry, AF647 antibody at 200 nM; human primary non-activated CD8+ CD25- T-cells, donor 26001
[5] = target: human GITR expressed on the cell surface (human) (UniProt Q9Y5U5); assay: flow cytometry, AF647 antibody at 200 nM; human primary non-activated CD4+ CD25- T-cells, donor 2700*
[6] = target: human GITR expressed on the cell surface (human) (UniProt Q9Y5U5); assay: flow cytometry, AF647 antibody at 200 nM; human primary non-activated CD4+ CD25- T-cells, donor 7900C
[7] = target: cynomolgus monkey GITR expressed on the cell surface (Macaca fascicularis (cynomolgus monkey)); assay: flow cytometry, AF647 antibody at 200 nM; cynomolgus primary CD8+ CD69+ T-cells, donor 58948
[8] = target: cynomolgus monkey GITR expressed on the cell surface (Macaca fascicularis (cynomolgus monkey)); assay: flow cytometry, AF647 antibody at 200 nM; cynomolgus primary non-activated CD8+ CD69- T-cells, donor 58947
[9] = target: human GITR expressed on the cell surface (human) (UniProt Q9Y5U5); assay: flow cytometry, AF647 antibody at 200 nM; human primary CD4+ CD25+ T-cells, donor 26001
[10] = target: Jurkat/hCD20 cells (human CD20, no GITR; negative control cell line) (human) (UniProt P11836); assay: flow cytometry on Jurkat/hCD20 control cells, 18 pM to 300 nM
[11] = target: cynomolgus monkey GITR expressed on the cell surface (Macaca fascicularis (cynomolgus monkey)); assay: flow cytometry on Jurkat/hCD20/MfGITR cells, 18 pM to 300 nM
[12] = target: cynomolgus monkey GITR expressed on the cell surface (Macaca fascicularis (cynomolgus monkey)); assay: flow cytometry, AF647 antibody at 200 nM; cynomolgus primary non-activated CD4+ CD69- T-cells, donor 58946
[13] = target: human GITR expressed on the cell surface (human) (UniProt Q9Y5U5); assay: flow cytometry, AF647 antibody at 200 nM; human primary non-activated CD8+ CD25- T-cells, donor 7900C
[14] = target: cynomolgus monkey GITR expressed on the cell surface (Macaca fascicularis (cynomolgus monkey)); assay: flow cytometry, AF647 antibody at 200 nM; cynomolgus primary CD8+ CD69+ T-cells, donor 58946
[15] = target: cynomolgus monkey GITR expressed on the cell surface (Macaca fascicularis (cynomolgus monkey)); assay: flow cytometry, AF647 antibody at 200 nM; cynomolgus primary non-activated CD8+ CD69- T-cells, donor 58946
[16] = target: human GITR expressed on the cell surface (human) (UniProt Q9Y5U5); assay: flow cytometry, AF647 antibody at 200 nM; human primary non-activated CD4+ CD25- T-cells, donor 8700C
[17] = target: cynomolgus monkey GITR expressed on the cell surface (Macaca fascicularis (cynomolgus monkey)); assay: flow cytometry, AF647 antibody at 200 nM; cynomolgus primary CD4+ CD69+ T-cells, donor 58946
[18] = target: Jurkat/hCD20 cells (human CD20, no GITR; negative control cell line) (human) (UniProt P11836); assay: flow cytometry on Jurkat/hCD20 control cells; max MFI over secondary antibody alone
[19] = target: human GITR expressed on the cell surface (human) (UniProt Q9Y5U5); assay: flow cytometry on Jurkat/hCD20/hGITR cells; max MFI over secondary antibody alone
[20] = target: cynomolgus monkey GITR expressed on the cell surface (Macaca fascicularis (cynomolgus monkey)); assay: flow cytometry, AF647 antibody at 200 nM; cynomolgus primary non-activated CD4+ CD69- T-cells, donor 58947
[21] = target: cynomolgus monkey GITR expressed on the cell surface (Macaca fascicularis (cynomolgus monkey)); assay: flow cytometry, AF647 antibody at 200 nM; cynomolgus primary CD8+ CD69+ T-cells, donor 58947
[22] = target: cynomolgus monkey GITR expressed on the cell surface (Macaca fascicularis (cynomolgus monkey)); assay: flow cytometry, AF647 antibody at 200 nM; cynomolgus primary non-activated CD8+ CD69- T-cells, donor 58948
[23] = target: human GITR expressed on the cell surface (human) (UniProt Q9Y5U5); assay: flow cytometry, AF647 antibody at 200 nM; human primary non-activated CD4+ CD25- T-cells, donor 26001
[24] = target: human GITR expressed on the cell surface (human) (UniProt Q9Y5U5); assay: flow cytometry, AF647 antibody at 200 nM; human primary CD8+ CD25+ T-cells, donor 7900C
[25] = target: cynomolgus monkey GITR expressed on the cell surface (Macaca fascicularis (cynomolgus monkey)); assay: flow cytometry, AF647 antibody at 200 nM; cynomolgus primary non-activated CD8+ CD69- T-cells, donor 58945
[26] = target: human GITR expressed on the cell surface (human) (UniProt Q9Y5U5); assay: flow cytometry, AF647 antibody at 200 nM; human primary non-activated CD8+ CD25- T-cells, donor 2700*
[27] = target: human GITR expressed on the cell surface (human) (UniProt Q9Y5U5); assay: flow cytometry, AF647 antibody at 200 nM; human primary CD4+ CD25+ T-cells, donor 8700C
[28] = target: human GITR expressed on the cell surface (human) (UniProt Q9Y5U5); assay: flow cytometry, AF647 antibody at 200 nM; human primary CD8+ CD25+ T-cells, donor 26001
[29] = target: cynomolgus monkey GITR expressed on the cell surface (Macaca fascicularis (cynomolgus monkey)); assay: flow cytometry, AF647 antibody at 200 nM; cynomolgus primary non-activated CD4+ CD69- T-cells, donor 58945
[30] = target: human GITR expressed on the cell surface (human) (UniProt Q9Y5U5); assay: flow cytometry, AF647 antibody at 200 nM; human primary CD4+ CD25+ T-cells, donor 7900C
[31] = target: hGITR.mmH (soluble monomeric recombinant human GITR ectodomain protein) (human); assay: blocking ELISA: 1.5 nM hGITR.mmH pre-incubated with antibody (up to 3 µM), binding to plate-coated hGITR-L
[32] = target: cynomolgus monkey GITR expressed on the cell surface (Macaca fascicularis (cynomolgus monkey)); assay: flow cytometry on Jurkat/hCD20/MfGITR cells; max MFI over secondary antibody alone
[33] = target: human GITR expressed on the cell surface (human) (UniProt Q9Y5U5); assay: flow cytometry, AF647 antibody at 200 nM; human primary CD8+ CD25+ T-cells, donor 8700C
[34] = target: human GITR expressed on the cell surface (human) (UniProt Q9Y5U5); assay: flow cytometry, AF647 antibody at 200 nM; human primary non-activated CD8+ CD25- T-cells, donor 8700C
[35] = target: cynomolgus monkey GITR expressed on the cell surface (Macaca fascicularis (cynomolgus monkey)); assay: flow cytometry, AF647 antibody at 200 nM; cynomolgus primary CD4+ CD69+ T-cells, donor 58947
[36] = target: human GITR expressed on the cell surface (human) (UniProt Q9Y5U5); assay: flow cytometry, AF647 antibody at 200 nM; human primary CD4+ CD25+ T-cells, donor 2700*
[37] = target: human GITR expressed on the cell surface (human) (UniProt Q9Y5U5); assay: flow cytometry on Jurkat/hCD20/hGITR cells, 18 pM to 300 nM
[38] = target: cynomolgus monkey GITR expressed on the cell surface (Macaca fascicularis (cynomolgus monkey)); assay: flow cytometry, AF647 antibody at 200 nM; cynomolgus primary CD8+ CD69+ T-cells, donor 58945
[39] = target: cynomolgus monkey GITR expressed on the cell surface (Macaca fascicularis (cynomolgus monkey)); assay: flow cytometry, AF647 antibody at 200 nM; cynomolgus primary non-activated CD4+ CD69- T-cells, donor 58948

Sequence of human GITR expressed on the cell surface (human) (Q9Y5U5 26-241 limits assumed): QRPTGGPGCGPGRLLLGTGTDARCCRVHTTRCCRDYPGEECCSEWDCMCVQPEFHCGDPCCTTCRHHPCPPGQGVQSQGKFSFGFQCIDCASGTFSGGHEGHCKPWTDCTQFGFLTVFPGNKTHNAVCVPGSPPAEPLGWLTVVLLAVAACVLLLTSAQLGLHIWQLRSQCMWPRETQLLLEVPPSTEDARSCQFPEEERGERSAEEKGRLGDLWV
Sequence of Jurkat/hCD20 cells (human CD20, no GITR; negative control cell line) (human) (P11836 whole entry): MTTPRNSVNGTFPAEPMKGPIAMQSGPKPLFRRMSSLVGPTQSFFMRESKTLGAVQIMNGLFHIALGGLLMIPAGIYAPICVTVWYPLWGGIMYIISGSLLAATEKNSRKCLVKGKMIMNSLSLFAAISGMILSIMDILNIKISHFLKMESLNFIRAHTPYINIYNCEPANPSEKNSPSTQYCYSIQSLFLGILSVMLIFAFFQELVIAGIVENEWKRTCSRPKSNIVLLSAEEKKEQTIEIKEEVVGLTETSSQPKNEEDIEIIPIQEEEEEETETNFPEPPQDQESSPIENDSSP
Sequence of hGITR.mmH (soluble monomeric recombinant human GITR ectodomain protein) (human) (chain, as listed by the source limits assumed): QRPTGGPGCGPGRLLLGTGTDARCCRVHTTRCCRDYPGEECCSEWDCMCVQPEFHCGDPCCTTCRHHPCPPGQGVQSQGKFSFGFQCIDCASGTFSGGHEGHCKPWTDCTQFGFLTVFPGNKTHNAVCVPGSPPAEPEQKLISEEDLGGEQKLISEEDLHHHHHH

IgG1 isotype control (antibody)
Max MFI [1]: 1110 MFI
Max MFI [2]: 1990 MFI
Max MFI [3]: 1030 MFI
Max MFI [4]: 644 MFI
Max MFI [5]: 1410 MFI
Max MFI [6]: 1330 MFI
Max MFI [7]: 1130 MFI
Max MFI [8]: 601 MFI
Max MFI [9]: 1230 MFI
Max MFI [10]: 1070 MFI
Max MFI [11]: 1360 MFI
Max MFI [12]: 650 MFI
Max MFI [13]: 1140 MFI
Max MFI [14]: 650 MFI
Max MFI [15]: 455 MFI
Max MFI [16]: 1060 MFI
Max MFI [17]: 803 MFI
Fold Binding [18]: 1.15 fold
Fold Binding [19]: 1.09 fold
Max MFI [20]: 825 MFI
Max MFI [21]: 921 MFI
Max MFI [22]: 512 MFI
Max MFI [23]: 827 MFI
Max MFI [24]: 2090 MFI
Max MFI [25]: 565 MFI
Max MFI [26]: 1130 MFI
Max MFI [27]: 1920 MFI
Max MFI [28]: 1100 MFI
Max MFI [29]: 730 MFI
Max MFI [30]: 2280 MFI
% Max Inhibition [31]: -6%
Fold Binding [32]: 1.1 fold
Max MFI [33]: 1970 MFI
Max MFI [34]: 1780 MFI
Max MFI [35]: 1230 MFI
Max MFI [36]: 2080 MFI
Max MFI [37]: 1090 MFI
Max MFI [38]: 1090 MFI
Max MFI [39]: 817 MFI
